For orientation: Km means the concentration of substrate that gives half-maximal velocity. What is called kcat is the maximal rate divided by the concentration of active sites. As usually defined, the kcat/Km is the turnover number divided by the Michaelis constant.

Series [1] concerns the target T1, leukotriene A4 hydrolase (LTA4H) (Homo sapiens, UniProt P09960).
T1 construct: N-terminal (His)6- and Xpress-tag
T1 sequence (P09960 2-611): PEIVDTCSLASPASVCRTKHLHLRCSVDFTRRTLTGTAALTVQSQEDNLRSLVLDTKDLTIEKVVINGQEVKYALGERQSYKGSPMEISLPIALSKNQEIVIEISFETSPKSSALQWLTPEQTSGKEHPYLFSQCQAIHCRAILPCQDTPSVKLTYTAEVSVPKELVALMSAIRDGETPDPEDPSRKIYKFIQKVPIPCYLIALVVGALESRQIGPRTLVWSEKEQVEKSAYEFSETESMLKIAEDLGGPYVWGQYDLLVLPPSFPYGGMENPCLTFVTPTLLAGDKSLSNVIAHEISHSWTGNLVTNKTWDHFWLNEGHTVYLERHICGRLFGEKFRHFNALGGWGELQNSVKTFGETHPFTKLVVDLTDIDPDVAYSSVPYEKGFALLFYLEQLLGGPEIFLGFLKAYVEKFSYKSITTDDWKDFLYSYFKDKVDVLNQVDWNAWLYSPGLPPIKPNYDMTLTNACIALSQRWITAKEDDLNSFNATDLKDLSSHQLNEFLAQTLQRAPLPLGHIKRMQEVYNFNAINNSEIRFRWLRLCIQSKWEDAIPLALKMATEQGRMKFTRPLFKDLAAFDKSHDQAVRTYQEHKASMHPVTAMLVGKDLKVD
As to the kind of experiment: X-ray co-crystal structure of ternary LTA4H:4MDM:OPB-Pro complex, […] Å. Format: binding.

Substrate in series [2]: O=C(Nc1ccc([N+](=O)[O-])cc1)[C@@H]1CCCN1
As to the kind of experiment: Michaelis-Menten hydrolysis kinetics of purified LTA4H at A405 (KM). In kind it is biochemical, Homo sapiens. The following applies: Zn2+ LTA4H AP substrate site.

Substrate in series [3]: C[C@H](N)C(=O)Nc1ccc([N+](=O)[O-])cc1
Described as above. The following applies: Zn2+ LTA4H AP substrate site. Format: biochemical, Homo sapiens.

Substrate in the series “purified protein”: N=C(N)NCCC[C@H](N)C(=O)Nc1ccc([N+](=O)[O-])cc1
As to the kind of experiment: purified protein. The following applies: Zn2+ LTA4H AP substrate site; cannot bind simultaneously with 4MDM.

Regarding `O=C(O)[C@@H]1CCCN1C(=O)CCC(=O)N1CCCC1` [OPB-Pro, N-(4-oxo-4-pyrrolidinyl-butanoyl)-proline], the “X-ray co-crystal structure of ternary LTA4H:4MDM:OPB-Pro complex, 2.8 Å” value in series [1] is on record as “The OPB-Pro was bound in the AP active site with its prolyl carbonyl group interacting with the zinc atom”.

B1: leukotriene A4 hydrolase (LTA4H) (Homo sapiens) (protein)
chain: PEIVDTCSLASPASVCRTKHLHLRCSVDFTRRTLTGTAALTVQSQEDNLRSLVLDTKDLTIEKVVINGQEVKYALGERQSYKGSPMEISLPIALSKNQEIVIEISFETSPKSSALQWLTPEQTSGKEHPYLFSQCQAIHCRAILPCQDTPSVKLTYTAEVSVPKELVALMSAIRDGETPDPEDPSRKIYKFIQKVPIPCYLIALVVGALESRQIGPRTLVWSEKEQVEKSAYEFSETESMLKIAEDLGGPYVWGQYDLLVLPPSFPYGGMENPCLTFVTPTLLAGDKSLSNVIAHEISHSWTGNLVTNKTWDHFWLNEGHTVYLERHICGRLFGEKFRHFNALGGWGELQNSVKTFGETHPFTKLVVDLTDIDPDVAYSSVPYEKGFALLFYLEQLLGGPEIFLGFLKAYVEKFSYKSITTDDWKDFLYSYFKDKVDVLNQVDWNAWLYSPGLPPIKPNYDMTLTNACIALSQRWITAKEDDLNSFNATDLKDLSSHQLNEFLAQTLQRAPLPLGHIKRMQEVYNFNAINNSEIRFRWLRLCIQSKWEDAIPLALKMATEQGRMKFTRPLFKDLAAFDKSHDQAVRTYQEHKASMHPVTAMLVGKDLKVD
notes: N-terminal (His)6- and Xpress-tag
Turning to B1, the Michaelis constant (Km) in series [2] is 840 ± 50 µM; in series [3], 1600 ± 120 µM; in the series “purified protein” it was 18790 ± 2730 µM. Also, the kcat in series [2] is 0.19 ± 0.01 s⁻¹; in series [3], 1.74 ± 0.07 s⁻¹; in the series “purified protein”, 24.4 s⁻¹. For the same molecule, the specificity constant (kcat/Km) in series [2] is 230 M⁻¹ s⁻¹; in series [3], 1080 M⁻¹ s⁻¹; in “purified protein” it was 1300 M⁻¹ s⁻¹.

These data come from article PMC9177663, “Substrate-dependent modulation of the leukotriene A4 hydrolase aminopeptidase activity and effect in a murine model of acute lung inflammation” (Scientific Reports, 2022).
